# Measured values from patent US20190309059A1 (SHANGHAI PHARMAEXPLORER, published 2019).
# B1: c35H6E1 (mouse-human chimeric IL-13 antibody) (antibody, V domains shown)
# VH: QVTLKESGPGILQSSQTLSLTCSFSGFSLSTSNMGVSWIRQPSGKGLEWLAHIYWDDDKRYNPSLESRLTISKDTSRNQVFLKITSVDTADSATYYCARRTNYFSTRDYFDYWGQGTTLTVSS
# VL: DIQMTQSPASLSVSVGETVTITCRASENIYSNLVWYQQKQGKSPQLLVYAATKLADGVPSRFSGSGSGTQYSLKINSLQSEDFGSYYCQHFWGFPWTFGGGTKLEIK
# B2: c70F10A10 (mouse-human chimeric IL-13 antibody) (antibody, V domains shown)
# VH: QIQLQQSGAELARPGASVKLSCKASGYTFTSYGISWVKQRDGQGLEWIGEIYPRSGNTDYNEKFKGKATLTADKSSSTAYMELRSLTSEDSAVYFCSSFTTLVPTDYFDYWGQGTTLTVSS
# VL: DIMMSQSPSSLAVSVGEKVSMTCKSSQSLLYSSNQKNYLAWYQQKPGQSPKMLIYWASTRETGVPDRFTGSGSGTDFTLTISSVMAEDLAVYYCHQYFTYPRTFGDGTKLEVK
# B3: 70F10A10 (lead antibody, mouse hybridoma) (antibody, V domains shown)
# VH: B2 VH
# VL: B2 VL
# Legend:
# [1] = molecular target: his-labeled human IL-13R130Q variant (human) (UniProt P35225); assay: ELISA, IL-13R130Q variant; antibody at 0.53 nM
# his-labeled human IL-13R130Q variant (human), sequence (P35225 other isoform, or with tags, fused parts or gaps mutant): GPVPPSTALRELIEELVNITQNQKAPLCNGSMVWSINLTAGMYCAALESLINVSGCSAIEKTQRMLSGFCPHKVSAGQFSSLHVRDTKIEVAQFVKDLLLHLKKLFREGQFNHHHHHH
# [2] = molecular target: his-labeled human IL-13R130Q variant (human) (UniProt P35225); assay: ELISA, IL-13R130Q variant; antibody at 66.67 nM
# [3] = molecular target: his-labeled human IL-13R130Q variant (human) (UniProt P35225); assay: ELISA, IL-13R130Q variant; antibody at 0.021 nM
# [4] = molecular target: his-labeled human IL-13R130Q variant (human) (UniProt P35225); assay: ELISA, IL-13R130Q variant; antibody at 0.11 nM
# [5] = molecular target: his-labeled human IL-13R130Q variant (human) (UniProt P35225); assay: ELISA, IL-13R130Q variant; antibody at 13.33 nM
# [6] = molecular target: his-labeled human IL-13 (immunogen A) (human) (UniProt P35225); assay: SPR (Biacore)
# [7] = molecular target: his-labeled human IL-13R130Q variant (human) (UniProt P35225); assay: ELISA, IL-13R130Q variant; antibody at 0.004 nM
# [8] = molecular target: his-labeled human IL-13 (immunogen A) (human) (UniProt P35225); assay: SPR (Biacore), antibody captured by anti-human Fc, immunogen A as analyte
# [9] = molecular target: his-labeled human IL-13R130Q variant (human) (UniProt P35225); assay: ELISA, IL-13R130Q variant; antibody at 2.67 nM
# [10] = molecular target: his-labeled human IL-13 (immunogen A) (human) (UniProt P35225); assay: FACS blocking, biotin-IL-13 on IL-13Ra2 HEK293 cells; antibody at 6.67 nM
# [11] = molecular target: his-labeled human IL-13 (immunogen A) (human) (UniProt P35225); assay: FACS blocking, biotin-IL-13 on IL-13Ra2 HEK293 cells; antibody at 33.33 nM
# [12] = molecular target: his-labeled human IL-13 (immunogen A) (human) (UniProt P35225); assay: FACS blocking, biotin-IL-13 on IL-13Ra1/IL-4Ra HEK293 cells; antibody at 0.002 nM
# [13] = molecular target: his-labeled human IL-13 (immunogen A) (human) (UniProt P35225); assay: FACS blocking, biotin-IL-13 on IL-13Ra1/IL-4Ra HEK293 cells; antibody at 166.67 nM
# [14] = molecular target: his-labeled human IL-13 (immunogen A) (human) (UniProt P35225); assay: FACS blocking, biotin-IL-13 on IL-13Ra2 HEK293 cells; antibody at 0.27 nM
# [15] = molecular target: his-labeled human IL-13 (immunogen A) (human) (UniProt P35225); assay: FACS blocking assay: antibody titrated with biotin-labeled immunogen A (20 ng/mL); blocked partner IL-13Ra2 on HEK293 clone 1A1; Alexa 488 streptavidin
# [16] = molecular target: his-labeled human IL-13 (immunogen A) (human) (UniProt P35225); assay: FACS blocking assay: antibody titrated with biotin-labeled immunogen A (30 ng/mL); blocked partner IL-13Ra1/IL-4Ra on HEK293 clone 4C1; Alexa 488 streptavidin
# [17] = molecular target: his-labeled human IL-13 (immunogen A) (human) (UniProt P35225); assay: FACS blocking, biotin-IL-13 on IL-13Ra1/IL-4Ra HEK293 cells; antibody at 0.27 nM
# [18] = molecular target: his-labeled human IL-13 (immunogen A) (human) (UniProt P35225); assay: FACS blocking, biotin-IL-13 on IL-13Ra2 HEK293 cells; antibody at 0.01 nM
# [19] = molecular target: his-labeled human IL-13 (immunogen A) (human) (UniProt P35225); assay: FACS blocking, biotin-IL-13 on IL-13Ra1/IL-4Ra HEK293 cells; antibody at 33.33 nM
# [20] = molecular target: his-labeled human IL-13 (immunogen A) (human) (UniProt P35225); assay: FACS blocking, biotin-IL-13 on IL-13Ra2 HEK293 cells; antibody at 0.002 nM
# [21] = molecular target: his-labeled human IL-13 (immunogen A) (human) (UniProt P35225); assay: cell-based or functional assay
# [22] = molecular target: his-labeled human IL-13 (immunogen A) (human) (UniProt P35225); assay: FACS blocking, biotin-IL-13 on IL-13Ra1/IL-4Ra HEK293 cells; antibody at 6.67 nM
# [23] = molecular target: his-labeled human IL-13 (immunogen A) (human) (UniProt P35225); assay: FACS blocking, biotin-IL-13 on IL-13Ra1/IL-4Ra HEK293 cells; antibody at 1.33 nM
# [24] = molecular target: his-labeled human IL-13 (immunogen A) (human) (UniProt P35225); assay: FACS blocking, biotin-IL-13 on IL-13Ra2 HEK293 cells; antibody at 0.05 nM
# [25] = molecular target: his-labeled human IL-13 (immunogen A) (human) (UniProt P35225); assay: FACS blocking, biotin-IL-13 on IL-13Ra2 HEK293 cells; antibody at 166.67 nM
# [26] = molecular target: his-labeled human IL-13 (immunogen A) (human) (UniProt P35225); assay: FACS blocking, biotin-IL-13 on IL-13Ra1/IL-4Ra HEK293 cells; antibody at 0.01 nM
# [27] = molecular target: his-labeled human IL-13 (immunogen A) (human) (UniProt P35225); assay: FACS blocking, biotin-IL-13 on IL-13Ra1/IL-4Ra HEK293 cells; antibody at 0.05 nM
# [28] = molecular target: his-labeled human IL-13 (immunogen A) (human) (UniProt P35225); assay: FACS blocking, biotin-IL-13 on IL-13Ra2 HEK293 cells; antibody at 1.33 nM
binder,measurement,setting,value
B1,OD450 nm,[1],2.13
same,OD450 nm,[2],3.31
same,OD450 nm,[3],0.23
same,OD450 nm,[4],0.8
same,OD450 nm,[5],3.23
same,Kd,[6],< 90 nM
same,OD450 nm,[7],0.11
same,Kd,[8],0.336 nM
same,koff,[8],0.000445 s⁻¹
same,kon,[8],1.33e+06 M⁻¹ s⁻¹
same,OD450 nm,[9],2.97
B2,mean fluorescence intensity,[10],31
same,mean fluorescence intensity,[11],27.8
same,mean fluorescence intensity,[12],96
same,mean fluorescence intensity,[13],20.8
same,mean fluorescence intensity,[14],78.4
same,IC50 (read off the curve),[15],0.7 nM
same,IC50 (read off the curve),[16],1 nM
same,mean fluorescence intensity,[17],83.7
same,mean fluorescence intensity,[18],97.6
same,mean fluorescence intensity,[19],22.6
same,mean fluorescence intensity,[20],97.5
same,"Periostin (pg/mL), MRCS cells + IL-13 5 ng/mL; antibody at 0.0002 nM",[21],6960 pg/mL
same,"Periostin (pg/mL), MRCS cells + IL-13 5 ng/mL; antibody at 0.001 nM",[21],6050 pg/mL
same,"Periostin (pg/mL), MRCS cells + IL-13 5 ng/mL; antibody at 0.004 nM",[21],5010 pg/mL
same,"Periostin (pg/mL), MRCS cells + IL-13 5 ng/mL; antibody at 0.021 nM",[21],4540 pg/mL
same,"Periostin (pg/mL), MRCS cells + IL-13 5 ng/mL; antibody at 0.11 nM",[21],4570 pg/mL
same,"Periostin (pg/mL), MRCS cells + IL-13 5 ng/mL; antibody at 0.53 nM",[21],3660 pg/mL
same,"Periostin (pg/mL), MRCS cells + IL-13 5 ng/mL; antibody at 2.67 nM",[21],2620 pg/mL
same,"Periostin (pg/mL), MRCS cells + IL-13 5 ng/mL; antibody at 13.3 nM",[21],1260 pg/mL
same,"TARC (pg/mL), A549 cells + IL-13 + TNFα; antibody at 0.001 nM",[21],2610 pg/mL
same,"TARC (pg/mL), A549 cells + IL-13 + TNFα; antibody at 0.004 nM",[21],3030 pg/mL
same,"TARC (pg/mL), A549 cells + IL-13 + TNFα; antibody at 0.021 nM",[21],2770 pg/mL
same,"TARC (pg/mL), A549 cells + IL-13 + TNFα; antibody at 0.11 nM",[21],2780 pg/mL
same,"TARC (pg/mL), A549 cells + IL-13 + TNFα; antibody at 0.53 nM",[21],2800 pg/mL
same,"TARC (pg/mL), A549 cells + IL-13 + TNFα; antibody at 2.67 nM",[21],2240 pg/mL
same,"TARC (pg/mL), A549 cells + IL-13 + TNFα; antibody at 13.3 nM",[21],1120 pg/mL
same,"TARC (pg/mL), A549 cells + IL-13 + TNFα; antibody at 66.7 nM",[21],348 pg/mL
same,"VCAM-1 fluorescence intensity, HUVEC + IL-13 0.5 ng/mL + TNFα; antibody at 0.0002 nM",[21],368
same,"VCAM-1 fluorescence intensity, HUVEC + IL-13 0.5 ng/mL + TNFα; antibody at 0.001 nM",[21],343
same,"VCAM-1 fluorescence intensity, HUVEC + IL-13 0.5 ng/mL + TNFα; antibody at 0.004 nM",[21],374
same,"VCAM-1 fluorescence intensity, HUVEC + IL-13 0.5 ng/mL + TNFα; antibody at 0.021 nM",[21],403
same,"VCAM-1 fluorescence intensity, HUVEC + IL-13 0.5 ng/mL + TNFα; antibody at 0.11 nM",[21],316
same,"VCAM-1 fluorescence intensity, HUVEC + IL-13 0.5 ng/mL + TNFα; antibody at 0.53 nM",[21],286
same,"VCAM-1 fluorescence intensity, HUVEC + IL-13 0.5 ng/mL + TNFα; antibody at 2.67 nM",[21],272
same,"VCAM-1 fluorescence intensity, HUVEC + IL-13 0.5 ng/mL + TNFα; antibody at 13.3 nM",[21],223
same,mean fluorescence intensity,[22],27.3
same,Kd,[6],< 90 nM
same,mean fluorescence intensity,[23],53.3
same,mean fluorescence intensity,[24],94
same,mean fluorescence intensity,[25],24.6
same,mean fluorescence intensity,[26],98.3
same,mean fluorescence intensity,[27],96.9
same,Kd,[8],1.02 nM
same,koff,[8],0.000271 s⁻¹
same,kon,[8],267000 M⁻¹ s⁻¹
same,mean fluorescence intensity,[28],49.1
B3,mean fluorescence intensity,[10],42.3
same,mean fluorescence intensity,[11],39.1
same,mean fluorescence intensity,[12],72.5
same,mean fluorescence intensity,[13],19.3
same,mean fluorescence intensity,[14],46.8
same,IC50 (read off the curve),[15],0.1 nM
same,mean fluorescence intensity,[17],51.9
same,mean fluorescence intensity,[18],75.6
same,mean fluorescence intensity,[19],20.3
same,mean fluorescence intensity,[20],76.7
same,"TARC (pg/mL), A549 cells + IL-13 5 ng/mL + TNFα; antibody at 0.001 nM",[21],2000 pg/mL
same,"TARC (pg/mL), A549 cells + IL-13 5 ng/mL + TNFα; antibody at 0.004 nM",[21],1830 pg/mL
same,"TARC (pg/mL), A549 cells + IL-13 5 ng/mL + TNFα; antibody at 0.021 nM",[21],1600 pg/mL
same,"TARC (pg/mL), A549 cells + IL-13 5 ng/mL + TNFα; antibody at 0.11 nM",[21],1630 pg/mL
same,"TARC (pg/mL), A549 cells + IL-13 5 ng/mL + TNFα; antibody at 0.5 nM",[21],1500 pg/mL
same,"TARC (pg/mL), A549 cells + IL-13 5 ng/mL + TNFα; antibody at 2.7 nM",[21],1140 pg/mL
same,"TARC (pg/mL), A549 cells + IL-13 5 ng/mL + TNFα; antibody at 13.3 nM",[21],656 pg/mL
same,"TARC (pg/mL), A549 cells + IL-13 5 ng/mL + TNFα; antibody at 66.7 nM",[21],207 pg/mL
same,mean fluorescence intensity,[22],24.7
same,mean fluorescence intensity,[23],30.7
same,mean fluorescence intensity,[24],70.8
same,mean fluorescence intensity,[25],37.8
same,mean fluorescence intensity,[26],73.5
same,mean fluorescence intensity,[27],67.6
same,mean fluorescence intensity,[28],46
